Measured values published in patent CN117083298A (CENTOCOR ORTHO BIOTECH INC, dated 2023).

Columns and labels:
人全长重组tau(2N4R) [1] = molecular target: T1, 人全长重组tau(2N4R) (human, UniProt P10636 2-758); experiment: SPR, Biacore T200, 25 °C, mAb captured by anti-Fc on a CM4 chip, tau as analyte, 1:1 Langmuir fit
T1 construct: also called human full-length recombinant tau; 全长重组Tau蛋白

人全长重组tau(2N4R) [2] = molecular target: T1, 人全长重组tau(2N4R); experiment: SPR, single-cycle kinetics

T1 sequence (P10636 other isoform, or with tags, fused parts or gaps limits assumed): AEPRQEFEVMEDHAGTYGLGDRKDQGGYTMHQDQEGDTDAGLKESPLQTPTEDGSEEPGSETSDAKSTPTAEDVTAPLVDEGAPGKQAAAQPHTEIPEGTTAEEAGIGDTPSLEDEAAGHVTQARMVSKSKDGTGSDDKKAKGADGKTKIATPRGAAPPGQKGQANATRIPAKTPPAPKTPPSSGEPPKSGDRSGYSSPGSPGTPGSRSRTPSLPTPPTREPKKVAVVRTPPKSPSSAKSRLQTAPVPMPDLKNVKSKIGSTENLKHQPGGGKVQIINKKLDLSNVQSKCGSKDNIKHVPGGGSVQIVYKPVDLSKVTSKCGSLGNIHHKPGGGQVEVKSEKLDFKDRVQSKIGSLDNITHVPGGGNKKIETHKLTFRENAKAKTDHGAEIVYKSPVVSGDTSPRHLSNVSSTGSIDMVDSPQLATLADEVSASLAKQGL

binding result (人全长重组tau(2N4R) [1]) | binding result (人全长重组tau(2N4R) [2]) | Binder
binds | – | PT1B545 (antibody, mouse IgG2a, kappa, V domains shown, Parental mouse mAb; also called PT/66; 亲本mAb PT/66) VH: QVQLQQPGAELVKPGASVKMSCKASGYTFTSYWITWVKQRPGQGLEWIGDIHPGRGSTKSNEKFKSKATLTVDTSSSTAYMQFSSLTSEDSAVYYCARRWGFDYWGQGTTLTVSS VL: DIVITQDELSNPVTSGESVSISCRSSKSLLYKDGKTYLNWFLQRPGQSPQLLIYLMSTRASGVSDRFSGSGSGTDFTLEISRVKAEDVGVYYCQQLVDYPLTFGAGTKLELKR
– | binds | PT1B1183 (antibody, human IgG1, kappa, V domains shown, Humanised antibody obtained from PT1B1153 by modifying framework region 2 of the light chain) VH: QVQLVQSGAEVKKPGASVKVSCKASGYTFTSYWITWVRQRPGQGLEWMGDIHPGRGSTKYAQKLQGRVTMTTDTSTSTAYMELRSLRSDDTAVYYCARRWGFDYWGQGTLVTVSS VL: DIVMTQTPLSSPVTLGQPASISCRSSKSLLYKDGKTYLNWFQQRPGQSPRLLIYLMSTRASGVPDRFSGSGAGTDFTLKISRVEAEDVGVYYCQQLVDYPLTFGQGTKLEIKR
